Results on one compound are retold here after article PMC5481817, “Developing Targeted Hybrid Imaging Probes by Chelator Scaffolding” (Bioconjugate chemistry, 2017).

*1 amine or outer side, *2 acyl side, *3 side chain or, on linkers, in order; H or OH if unused. Where a SMILES comes first, the peptide text is derived from it. Bridges are numbered along the chain shown (N, C = ends). Roman numbers before positions name the chains, in order. [ ]: non-standard residue; d: D form. X1 = C/C1=C/C(=O)N(O)CCC[C@H](NC(=O)CCN2C(=O)CC([*:2])C2=O)C(=O)OCC/C(C)=C\C(=O)N(O)CCC[C@H](NC(=O)CCN2C(=O)CC([*:1])C2=O)C(=O)OCC/C(C)=C\C(=O)N(O)CCC[C@H](NC(=O)CCCCC[N+]2=C(C=CC3=CC(=CC=C4N(C)c5ccc(S(=O)(=O)[O-])cc5C4(C)C)CCC3)C(C)(C)c3cc(S(=O)(=O)O)ccc32)C(=O)OCC1; Mpa = O=C(O)CCS

Data set [1] is described as follows: physchem. It counts as physicochemical. Conditions: buffer or solvent. As to the method: (§1) [^68Ga]Sulfo-Cy7-FSC-MG and [^68Ga]Sulfo-Cy7-FSC-RGD (6 MBq) were diluted with phosphate buffered saline to a concentration of 1 μM. Subsequently 50 μL of this solution was added to six Eppendorf tubes containing 450 μL PBS and 500 μL octanol. The mixture was vortexed (1400 rpm) at RT for 15 min using a MS 3 basic vortexer (IKA, Staufen, Germany) followed by centrifugation for 2 min at 4500 rpm. Aliquots of 100 μL of both phases were transferred to plastic vials, measured in the γ-counter and logD values were calculated. For stability testing, radiolabeled tracers were diluted with 450 μL fresh human serum and 450 μL PBS as control to a concentration of 2 μM followed by incubation at 37 °C. After 1, 2, and 4 h (n = 3) 50 μL aliquots were precipitated with acetonitrile (1:1) and centrifuged for 2 min at 14 × 10^3 rpm. The supernatant was analyzed by radio-RP-HPLC to evaluate for decomposition and corresponding chromatograms are shown in Supporting Information. For protein binding measurement aliquots were analyzed by size exclusion chromatography using MicroSpin G-50 Columns (Sephadex G-50, GE Healthcare, Vienna, Austria) in triplicates. First, the columns were centrifuged at 750 rcf for 1 min to remove the storage buffer. After adding 25 μL of incubation solution columns were centrifuged again for 2 min with 2000 rcf. Column and eluate were measured in the γ-counter and percentages of nonprotein bound radiolabeled peptide (column) and protein bound radiotracer (eluate) were calculated.

Data set [2] is classed as physicochemical. Conditions: pH 7.4. As to the method: as §1, with “First, the columns were centrifuged at 750 rcf for 1 min to remove the storage buffer. After adding 25 μL of incubation solution columns were centrifuged again for 2 min with 2000 rcf.” left out
Data set [3] has as its system A431-CCK2R/A431-mock tumor xenograft-bearing BALB/c nude mice. Nature of the data set: Static micro-PET/CT imaging, A431-CCK2R/A431-mock xenografts. The class given is in vivo, mouse. Conditions: static PET, 60 and 120 min post-injection. As to the method: All animal experiments were conducted in accordance with regulations and guidelines of the Czech Animal Protection Act (No. 246/1992), and with the approval of the Czech Ministry of Education, Youth, and Sports (MSMT-22421/2013–12), and the institutional Animal Welfare Committee of the Faculty of Medicine and Dentistry of Palacky University in Olomouc. The studies were performed using female 8–10-week-old athymic BALB/c nude mice (Envigo, Horst, The Netherlands). […]
Tumor xenografts were established near the front shoulder of mice by subcutaneous injection of 5 × 10^6 cells (U-87 MG) or 2 × 10^6 cells (A431-CCK2R) and the same amount of A431-mock cells as a control in 200 μL appropriate medium and Matrigel (1:1). […] Tumors, blood, muscle tissue, and organs were extracted, weighed, and activity uptake of the samples was measured in the gamma counter. Results were expressed as percentage of injected dose per gram tissue (% ID/g). […] After reconstruction, acquired data was viewed and analyzed with PMOD software (PMOD Technologies Ltd., Zurich, Switzerland). […] Near-infrared in vivo fluorescence imaging was performed with an In-Vivo MS FX PRO small animal imaging system (Bruker Biospin Corporation, Woodbridge, CT, USA). […] An appropriate filter set (excitation = 730 nm and emission = 790 nm) was used for acquiring the Sulfo-Cy7-FSC-peptide - fluorescence in vivo. […]

Data set [4] in a line: in vitro. The class given is in vitro ADME, human. Conditions: human, serum. As to the method: as §1, with “First, the columns were centrifuged at 750 rcf for 1 min to remove the storage buffer. After adding 25 μL of incubation solution columns were centrifuged again for 2 min with 2000 rcf.” left out
Data set [5] in a line: in vivo. Conditions: mouse. As to the method: All animal experiments were conducted in accordance with regulations and guidelines of the Czech Animal Protection Act (No. 246/1992), and with the approval of the Czech Ministry of Education, Youth, and Sports (MSMT-22421/2013–12), and the institutional Animal Welfare Committee of the Faculty of Medicine and Dentistry of Palacky University in Olomouc. The studies were performed using female 8–10-week-old athymic BALB/c nude mice (Envigo, Horst, The Netherlands). The number of animals was reduced as much as possible (n = 3 per group and time point for all experiments) and retro-orbital (r.o.) tracer injection as well as small animal imaging was carried out under 2% isoflurane anesthesia (FORANE, Abbott Laboratories, Abbott Park, IL, USA) to minimize animal suffering.
Tumor xenografts were established near the front shoulder of mice by subcutaneous injection of 5 × 10^6 cells (U-87 MG) or 2 × 10^6 cells (A431-CCK2R) and the same amount of A431-mock cells as a control in 200 μL appropriate medium and Matrigel (1:1). The tumors were allowed to grow until they had reached a volume of 0.2 to 0.5 cm^3. To evaluate ex vivo biodistribution mice were injected with 1–2 MBq (0.05–0.14 nmol) of radiotracer per mouse and mice were sacrificed by cervical dislocation after 30 and 90 min for [^68Ga]Sulfo-Cy7-FSC-RGD and after 1 and 2 h in the case of [^68Ga]Sulfo-Cy7-FSC-MG. Tumors, blood, muscle tissue, and organs were extracted, weighed, and activity uptake of the samples was measured in the gamma counter. Results were expressed as percentage of injected dose per gram tissue (% ID/g). In vivo PET and CT images were acquired with an Albira PET/SPECT/CT small animal imaging system (Bruker Biospin Corporation, Wood-bridge, CT, USA). Xenograft bearing mice were injected with radiolabeled peptides in a dose of ~5 MBq corresponding to 1–2 μg (0.25–0.58 nmol) of peptide per mouse. Anaesthetized animals were positioned prone head first in the Albira system before the start of imaging. Static PET/CT imaging was carried out 30 and 90 min p.i. for [^68Ga]Sulfo-Cy7-FSC-RGD. Animals injected with [^68Ga]Sulfo-Cy7-FSC-MG were imaged 1 and 2 h p.i. A 10 min PET scan (axial FOV 148 mm) was performed, followed by a CT scan (axial FOV 65 mm, 45 kVp, 400 μA, at 400 projections). Scans were reconstructed with the Albira software (Bruker Biospin Corporation, Woodbridge, CT, USA) using the maximum likelihood expectation maximization (MLEM) and filtered backprojection (FBP) algorithms. After reconstruction, acquired data was viewed and analyzed with PMOD software (PMOD Technologies Ltd., Zurich, Switzerland). 3D images were obtained using VolView software (Kitware, Clifton Park, NY, USA). Near-infrared in vivo fluorescence imaging was performed with an In-Vivo MS FX PRO small animal imaging system (Bruker Biospin Corporation, Woodbridge, CT, USA). Sulfo-Cy7-FSC-MG and Sulfo-Cy7-FSC-RGD were injected in a dose of 0.25–0.58 nmol per mouse and after supine head first positioning, imaging was conducted in various time intervals up to 72 h p.i. An appropriate filter set (excitation = 730 nm and emission = 790 nm) was used for acquiring the Sulfo-Cy7-FSC-peptide - fluorescence in vivo. Identical illumination settings (acquisition time = 15 s, filters = 730/790 nm, f-stop = 2.8, field of view = 100 mm, and binning = 4 × 4) were used for acquiring all images, and fluorescence emission was normalized to photons/s/mm^2. Images were acquired and analyzed using Bruker MI SE software (Bruker Biospin Corporation, Woodbridge, CT, USA).

The test system of data set [6] is A431-CCK2R cells. Description: CCK-2 receptor internalization assay (radioligand). The class given is cell-based, human. Conditions: for unspecific membrane bound amount: blocked with pentagastrin. As to the method: To determine the receptor-mediated radioligand uptake A431-CCK2R cells were seeded into 12-well plates (Nunc, Thermo Scientific) with a density of 2 × 10^6 cells per well and left to grow overnight at 37 °C. At the day of the experiment each well was washed twice with fresh internalization medium (DMEM containing 1% fetal bovine serum) followed by the adjustment to a final volume of 1.2 mL with media. After dividing the plate into an unblocked and blocked compartment (6 wells each) 150 μL PBS/0.5% bovine serum albumin (BSA) solution or 150 μL blocking solution (100-fold molar excess of pentagastrin in PBS/0.5% BSA solution) were added and left for 10 min at room temperature. Hereafter, 150 μL of the radiolabeled peptide (1 nM [^68Ga]Sulfo-Cy7-FSC-MG in PBS/0.5% BSA approximately 3 × 10^4 cpm) was added to each well followed by incubation at 37 °C for 1 and 2 h, respectively. After removal of the supernatant each well was washed two times with 1 mL ice-cold internalization medium and supernatants were collected in plastic vials (wash fraction). For determination of the membrane bound radiotracer cells were incubated twice with 1 mL ice-cold 0.05 M glycine-buffer (pH 2.8) for 5 min collecting the supernatants. Finally, internalized fraction was obtained by lysing the cells with 1 mL of 2 M sodium hydroxide solution (NaOH) two times and collecting the samples. To determine the amount of radiotracer of each fraction all samples were taken for γ-counter measurement against standard solution, i.e., 150 μL radiotracer.

Turning to `CSCC[C@H](NC(=O)[C@H](Cc1c[nH]c2ccccc12)NC(=O)CNC(=O)[C@H](Cc1ccc(O)cc1)NC(=O)[C@H](C)NC(=O)[C@@H](CCC(=O)O)NC(=O)CCSC1CC(=O)N(CCC(=O)N[C@H]2CCCN(O)C(=O)/C=C(/C)CCOC(=O)[C@@H](NC(=O)CCN3C(=O)CC(SCCC(=O)N[C@H](CCC(=O)O)C(=O)N[C@@H](C)C(=O)N[C@@H](Cc4ccc(O)cc4)C(=O)NCC(=O)N[C@@H](Cc4c[nH]c5ccccc45)C(=O)N[C@@H](CCSC)C(=O)N[C@@H](CC(=O)O)C(=O)N[C@@H](Cc4ccccc4)C(N)=O)C3=O)CCCN(O)C(=O)/C=C(/C)CCOC(=O)[C@@H](NC(=O)CCCCC[N+]3=C(C=CC4=CC(=CC=C5N(C)c6ccc(S(=O)(=O)[O-])cc6C5(C)C)CCC4)C(C)(C)c4cc(S(=O)(=O)O)ccc43)CCCN(O)C(=O)/C=C(/C)CCOC2=O)C1=O)C(=O)N[C@@H](CC(=O)O)C(=O)N[C@@H](Cc1ccccc1)C(N)=O` (stereo partly drawn) [[^68Ga]Sulfo-Cy7-FSC-MG, metal not drawn] (I: [Mpa][dE]AYGWMDF-NH2 / II: [Mpa][dE]AYGWMDF-NH2; linker I:1-II:1 via X1), in data set [1], the fraction remaining (in general, the share of the starting amount still present when the sample was taken) at 1 h, 2 μM was 95.1 ± 0.2%. In addition, the share remaining at 2 h, 2 μM in data set [1] was 94.9 ± 0.4%. Moreover, the fraction remaining at 4 h, 2 μM in data set [1] was 94.4 ± 0.1%. Also, the logD (as a rule, lipophilicity at a set pH, counting ionised and neutral species) in data set [2] is -1.9 ± 0.17. The PET target-to-organ contrast entry in data set [3] is reported as “moderate target-to-organ contrast”. Further, the fraction unbound (in general, the share of the substance not bound to proteins or other matrix) at 2 μM in data set [4] was < 0.3. The tissue to tissue ratio in data set [5] (female, athymic BALB/c nude, total radioactivity) is < 0.5. Moreover, the tissue uptake (as a rule, the share of the injected amount in each gram of the tissue) at 2 h came to 71.1 ± 7 %ID/g in data set [5] (accumulation in kidneys), 25.7 ± 3.3 %ID/g in data set [5] (accumulation in liver tissue), 3 ± 0.5 %ID/g in data set [5] (blood) and 3.8 ± 0.7 %ID/g in data set [5] (tumor uptake). Besides, the tissue uptake at 1 h in data set [5] (blood) is 4.7 ± 0.7 %ID/g; in data set [5] (tumor uptake), 3.1 ± 0.9 %ID/g. The internalized activity in data set [6] (blocked with pentagastrin in 100-fold molar excess, 1 h) is recorded as 0.19 ± 0.1%; in data set [6] (blocked with pentagastrin in 100-fold molar excess, 2 h), 0.44 ± 0.41%; in data set [6] (unblocked, 1 h incubation) it was 4.56 ± 0.39 % of total activity; in data set [6] (unblocked, 2 h incubation), 8.75 ± 1.32 % of total activity. Further, the “unspecific membrane bound amount” value in data set [6] (1 h) is 0.13 ± 0.06%; in data set [6] (2 h) it was 0.25 ± 0.23%. Further, the “unspecific membrane bound amount of activity” value is given as 0.21 ± 0.08% in data set [6] (unblocked, 1 h) and 0.31 ± 0.29% in data set [6] (unblocked, 2 h).
